Measurements taken from publication PMC5309799.

Columns and labels:
[1] = target: RH5Nt (F1-K116), biotinylated SPR ligand (P. falciparum (3D7 strain)); assay: SPR
[2] = target: Synthetic RH5Nt peptide (F1-K116 with an additional C-terminal cysteine) (P. falciparum); assay: SPR
Basigin (Homo sapiens) = Basigin (Homo sapiens) (UniProt P35613); conditions: cited from earlier work
[3] = target: Basigin ectodomain, AVEXIS bait or prey and biotinylated SPR ligand (human) (UniProt P35613); assay: SPR
[4] = target: P113 Y1-K197, biotinylated SPR ligand (P. falciparum (3D7 strain)); assay: SPR
[5] = target: P113 Y1-N653, biotinylated SPR ligand (P. falciparum (3D7 strain)); assay: SPR
[6] = target: P113 entire ectodomain, AVEXIS bait or prey and biotinylated SPR ligand (P. falciparum (3D7 strain)); assay: SPR
[7] = target: purified P113 entire ectodomain (P113 EE) (P. falciparum (3D7 strain)); assay: native gel or EMSA; fractions of the gel filtration peak resolved by native PAGE (Bis-Tris, 150 V) against denaturing SDS-PAGE
[8] = target: P113 entire ectodomain, AVEXIS bait and prey forms (P. falciparum (3D7 strain)); assay: SPR

P113 Y1-N653, purified SPR analyte (domain or fragment)
Kd [1]: 5 µM | koff [1]: 1.54 s⁻¹ | kon [1]: 304000 M⁻¹ s⁻¹ | Kd [2]: 5.7 µM | koff [2]: 1.24 s⁻¹ | kon [2]: 216000 M⁻¹ s⁻¹

RH5 (from UniProt Q8IFM5)
Kd (Basigin (Homo sapiens)): 1000 nM

RH5Ct (major processed form of RH5), purified monomeric SPR analyte (domain or fragment)
Kd [3]: 900 nM | koff [3]: 0.293 s⁻¹ | kon [3]: 342000 M⁻¹ s⁻¹

RH5FL, purified monomeric SPR analyte (from UniProt Q8IFM5 25-526) (natural protein)
Kd [3]: 1300 nM | Kd [4]: 1100 nM | Kd [5]: 500 nM

RH5Nt (N-terminal region of RH5, F1-K116), purified monomeric SPR analyte (domain or fragment)
Kd [6]: 2700 nM | koff [6]: 0.793 s⁻¹ | kon [6]: 300000 M⁻¹ s⁻¹

purified P113 entire ectodomain (P113 EE) (natural protein)
stoichiometry N [7]: 4

purified monomeric RH5Nt (F1-K116) (domain or fragment)
Kd [8]: 3000 nM

purified monomeric full-length RH5 (RH5FL) (from UniProt Q8IFM5 25-526) (natural protein)
Kd [8]: 300 nM
